Assay results: patent US12441790B2, “Binding proteins to the human thrombin receptor, PAR4” (MONASH UNIVERSITY, priority 2017, dated 2025)

What was measured:
[1] = tested on: human whole blood; test: Human whole blood thrombosis assay; assay type: cell-based
Description: Human whole blood collected in citrate (3.2%) was pre-incubated for 15 min at 37° C. with PE-conjugated anti-CD9 antibody (4 μg/mL) and an anti-fibrin antibody (5 μg/ml), and one of hirudin (800 U/ml), DMSO (1% v/v), PAR-1 antagonist E5555 (1 μM), anti-PAR4 antibody (0.2 mg/ml) or the combination of both PAR inhibitors. Whole blood was re-calcified with 5-7.5 mM CaCl2 (final concentration) to initiate coagulation, and drawn over glass microslides (1×0.1 mm internal diameter) coated with bovine type 1 collagen (250 μg/ml) at a fixed flow rate of 0.06 ml/min, resulting in a wall shear rate of 600 s^−1. Dual colour confocal fluorescence images were recorded at 488 and 561 nm excitation, collected through a 40× water immersion objective. Confocal z-stacks were continuously recorded for 2 min before modified, calcium-free Tyrode's buffer was flowed over the thrombi and z-stacks encompassing the entire height of the thrombus field were recorded over a period of 10 min. Platelet thrombi were defined using anti-CD9-PE and fibrin volume was quantified using average fluorescence of the thrombus field. Data were normalised against the hirudin baseline and expressed as a percentage of the control.
Thrombosis parameters including platelet deposition, thrombin activity, fibrin volume and ratio of fibrin per thrombus were measured in real-time over a period of 10 minutes in a whole blood thrombosis assay as described herein under conditions of coagulation.
Platelet deposition (PE-conjugated anti-CD9), thrombin activity (FRET-based thrombin probe), fibrin volume (Dylight650-conjugated anti-fibrin antibody) and the ratio of fibrin per thrombus at the 10 minute end-point is shown in FIG. 10A by confocal microscopy (to allow for volume measurements to be taken) using a Nikon Air with a 25× lens and 2× digital magnification.
The volume of human thrombi formed after 3 min was quantified by confocal microscopy in an ex vivo human whole blood thrombosis assay.

[2] = target: T1, native PAR4 peptide (Homo sapiens, UniProt Q96RI0); test: ELISA screening of hybridoma supernatants, native vs KLH-linked PAR4 peptide; assay type: binding; details: first screening; second sub-clone
T1 construct: host or cells: synthetic peptide
Description: (§1) 96-well ELISA plates were coated with 50 μl of antigen diluted to a concentration of 4 μg/ml in coating buffer (0.1M Sodium Hydrogen Carbonate (NaHCO3) (Merck, #1.06329.0500)). Plates were incubated overnight at 4° C.
(§2) Wells were then washed with an automated plate washer (300 μl 1×PBS, 3 times). The wells were blocked with 200 μl of blocking buffer (3% BSA/1×PBS (BSA: (Sigma, #1001647742)) for 1 hour at room temperature followed by washing as above.
(§3) 50 μl of undiluted hybridoma cell culture supernatant was added into appropriate wells and incubated at room temperature for 1 hour followed by washing as above. […] Wells were washed as above. A set of substrate tablets (1×silver, 1×gold) into 20 ml of ddH20 by shaking vigorously on the thermomixer for 6 mins at room temperature. 50 μl of substrate ([…]™ p-Nitrophenyl phosphate Tablets (Sigma-Aldrich, N2770-50SET)) was added into each well and incubated for 20-25 mins at room temperature. 50 μl of STOP solution (2M Sodium Hydroxide, Solid (NaOH) (Merck, Cas #1310-73-2)) was added into each well to stop the reaction. Absorbance was read at 405 nm immediately after adding STOP solution with the ELISA reader, using the ‘RdrOle4’ software.

[3] = target: T2, hPAR4 peptide (Homo sapiens, UniProt Q96RI0); test: mAb capture SPR (Biacore, anti-mouse Fc capture); assay type: binding
T2 construct: host or cells: synthetic peptide
Description: Biacore analysis was performed on a Biacore T200 using two different methods either an anti-mouse Fc capture approach or using a similar method as described above using the ProteoOn system.
A series S CM5 sensor chip was activated with standard EDC/NHS amine coupling chemistry using the manufacturers recommended protocol with Goat anti-mouse IgG Fc. Anti-hPAR4 mAbs were captured at 1-2 ug/ml for 2 minutes at 10 ul/minute on flow cell 2 (FC2) and flow cell 1 (FC1) was used as a reference channel. […] Blank injections of buffer alone were also performed. All injections were performed in duplicate and in a random order. After each capture/injection/dissociation cycle the chip was regenerated with a 30 second injection of 0.1M Glycine pH2.0.
For the mAb capture method low levels of ligand mAb and analyte hPAR4 were used in an attempt to produce a 1:1 binding interaction, this method has been used successfully to measure kinetics and affinity KD's (Kamat V and Rafique A (2017) Analytical Biochemistry 530:75-86), despite using a whole IgG.
The kinetics of the binding interaction between the mAbs and hPAR4 was measured using Surface Plasmon Resonance (SPR; Biacore) by two different methods: 1. Anti-mouse Fc mAb capture method and 2. Streptavidin (SA) chip to capture biotinylated peptide. The ka(on) rate and kd(off) rates and KD were measured and fitted to a Langmuir model using the Biacore evaluation software.

[4] = tested on: PAR4 peptide vs PAR1, PAR2 and PAR3 peptides; test: ELISA specificity screening, PAR4 peptide vs PAR1, 2 or 3 peptide; assay type: binding, human; details: hybridoma supernatant
Description: as §1, §2
as §3, with “50 μl of STOP solution (2M Sodium Hydroxide, Solid (NaOH) (Merck, Cas #1310-73-2)) was added into each well to stop the reaction.” left out
Hybridoma supernatants were initially screened for binding to the immunising PAR4 peptide sequence ([…]-KLH (SEQ ID NO: 4)) by antigen microarray, with binding determined by fluorescence intensity signal over background (signal from medium alone). […]

[5] = tested on: human isolated platelets; test: Binding to human platelets by flow cytometry; details: 10 μg/ml, against isotype control
Description: Human or mouse washed platelets (5×10^7/mL) were incubated with anti-PAR4 antibody (0.1 mg/ml) for 30 mins at 37° C. and then fixed with paraformaldehyde 1% v/v final concentration). The suspension was then centrifuged at 1000×g for 2 min to obtain the platelet pellet, which was then resuspended in modified Tyrode's buffer (12 mM NaHCO3, 10 mM HEPES pH 7.4, 137 mM NaCl, 2.7 mM KCl, 5.5 mM D-glucose, 1 mM CaCl2) containing a 1:50 dilution of an FITC-conjugated […] IgG. After 30 mins at room temperature, the samples were centrifuged again, and the platelet pellet was resuspended in modified Tyrode's buffer an analysed by use of a flow cytometer (FACSCalibur, BD Biosciences).
Clone 5A.RC3 was tested for binding to isolated human platelets in vitro. Analysis of binding was determined using flow cytometry. Isolated platelets were incubated with either mouse IgG1 (isotype control) or 5A.RC3 and tested for binding to PAR4. CD41a which is a marker expressed on platelets was used as a positive control.
The binding of five anti-PAR4 monoclonal antibodies to human platelets was examined by flow cytometry.

[6] = 10 minute endpoint, 5A.RC3 100 μg/ml, hirudin 800 U/ml

T2 sequence (Q96RI0 35-54 limits assumed): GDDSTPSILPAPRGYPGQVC

B1: 5A.RC3: anti-PAR4 monoclonal antibody, IgG2a/K, VH SEQ ID NO:11 and VL SEQ ID NO:12 (antibody, V domains shown)
VH: QVQLVESGGGVVQPGRSLRLSCAASGFTLSNYGMHWVRQAPGKGLEWVSVIWYDGSNKHYADSVKGRFTISRDNSKNTLYLQMNSLRAEDTAVYYCARESIVEVLPPFDYWGQGTLVTVSS
VL: KIVLTQSPGTLSLSPGERVTLSCRASQRVRNNYLAWFQQKPGQAPRLFIYGASSRATGIPDRFSGSGSGTDFIFTISRLEPEDFAVYYCQQYGNSYTFGQGTKLEIK
modifications: VH of 5A.RC3; VL of 5A.RC3
For B1, the total thrombus volume ([1]; 100 μg/ml, thrombi formed after 3 min) was “reduced total thrombus volume”, the “ratio of fibrin per thrombus volume” value ([1]; 10 minute endpoint, 5A.RC3 100 μg/ml) was “significantly inhibited” and the fibrin volume [1, 6] was “significantly inhibited”. The platelet deposition [1, 6] was “no effect”, the thrombin activity [1, 6] was “significantly inhibited” and the “Fold binding native vs KLH-linked PAR4 peptide” value [2] was 19.3. The ka [3] was 330000 M⁻¹ s⁻¹, the kd [3] was 0.00487 s⁻¹ and the “selectivity to human PAR4 peptide over PAR1, PAR2 and PAR3” value [4] was 16 fold. The “binding to PAR4 on isolated human platelets” value [5] was “binds human PAR4 in isolated platelets”.
